Measurements published in the supplement of paper PMC7877785.
± gives the uncertainty stated by the source.

Experiment: self-splicing fitness, log relative to wild type (ln ratio); higher = more splicing; Tetrahymena group I intron in knt gene, E. coli kanamycin selection, DiMSum; sequences stand for … in CUCUCU…GGAGGGAAAAGUUAUCAGGCAUGCACCUGGUAGCUAGUCUUUAAACCAAUAGAUUGCAUCGGUUUAAAAGGCAAGACCGUCAAAUUGCGGGAAAGGGGUCAACAGCCGUUCAGUACCAAGUCUCAGGGGAAACUUUGAGAUGGCCUUGCAAAGGGUAUGGUAAUAAGCUGACGGACAUGGUCCUAACCACGCAGCCAAGUCCUAAGUCAACAGAUCUUCUGUUGAUAUGGAUGCAGUUCACAGACUAAAUGUCGGUCGGGGAAGAUGUAUUCUUCUCAUAAGAUAUAGUCGGACCUCUCCUUAAUGGGAGCUAGCGGAUGAAGUGAUGCAACACUGGAGCCGCUGGGAACUAAUUUGUAUGCGAAAGUAUAUUGAUUAGUUUUGGAGUACUCGUGGUCG
How it was run: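 Library with all eight P1ex-region intron nucleotides randomised, intron inside the knt kanamycin-resistance gene on pET-22b(+), in E. coli BL21(DE3). Cells grew overnight at 37°C or 30°C on LB agar with or without 25 μg/mL kanamycin (plus 100 μg/mL carbenicillin, 50 μM IPTG, 0.2% rhamnose), in six replicate transformations. Pooled colonies were amplicon-sequenced on Illumina HiSeq 2500. DiMSum fitness is the error-weighted combination of wild-type-normalised replicate fold changes, kanamycin versus none.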

| Sequence | self-splicing fitness (ln) (30 °C) | self-splicing fitness (ln) (37 °C) |
| --- | --- | --- |
| UGGCAGCAAUAUUACGUCAA | -1.16 ± 0.099 | -0.518 ± 0.09 |
| UGGCAGCAAUAUUACGUCCU | -0.363 ± 0.11 | 0.0307 ± 0.15 |
| UGGCAGCAAUAUUACGUCGA | -0.694 ± 0.04 | 0.401 ± 0.058 |
| UGGCAGCAAUAUUACGUGGC | -3.92 ± 0.18 | -2.72 ± 0.19 |
| UGGCAGCAAUAUUACGUGGU | -2.84 ± 0.15 | -2.99 ± 0.23 |
| UGGCAGCAAUAUUACGUGUC | -3.85 ± 0.19 | -2.17 ± 0.19 |
| UGGCAGCAAUAUUACGUGUG | -0.896 ± 0.043 | -0.192 ± 0.057 |
| UGGCAGCAAUAUUACGUUAA | -1.16 ± 0.084 | -0.28 ± 0.084 |
| UGGCAGCAAUAUUACGUUAC | -4.11 ± 0.46 | -2.46 ± 0.25 |
| UGGCAGCAAUAUUACGUUUA | -0.478 ± 0.084 | 0.426 ± 0.096 |
| UGGCAGCAAUAUUACGUUUU | -2.85 ± 0.14 | -0.527 ± 0.13 |
| UGGGAGCAAUAUUACGAAAA | -2.22 ± 0.31 | -2.16 ± 0.34 |
| UGGGAGCAAUAUUACGAAGU |  | -1.21 ± 0.3 |
| UGGGAGCAAUAUUACGACGG | -2.22 ± 0.26 | -1.69 ± 0.39 |
| UGGGAGCAAUAUUACGAUAA | -0.547 ± 0.44 |  |
| UGGGAGCAAUAUUACGAUAG | -3.25 ± 0.32 |  |
| UGGGAGCAAUAUUACGCAAG | -2.15 ± 0.36 |  |
| UGGGAGCAAUAUUACGCCGG | -2.45 ± 0.23 | -2.19 ± 0.31 |
| UGGGAGCAAUAUUACGCGUU | -2.33 ± 0.28 | -2.02 ± 0.44 |
| UGGGAGCAAUAUUACGCUAU | -1.67 ± 0.29 | -2.62 ± 0.38 |
| UGGGAGCAAUAUUACGGACG | -1.52 ± 0.14 | -0.236 ± 0.15 |
| UGGGAGCAAUAUUACGGAGC | -3.98 ± 0.46 | -1.65 ± 0.5 |
| UGGGAGCAAUAUUACGGAUG | -3.69 ± 0.39 | -1.14 ± 0.26 |
| UGGGAGCAAUAUUACGGGAC | -4.71 ± 0.46 | -2.7 ± 0.38 |
| UGGGAGCAAUAUUACGGGAU | -3.11 ± 0.37 | -2.17 ± 0.29 |

| Sequence | self-splicing fitness (ln) (30 °C) | self-splicing fitness (ln) (37 °C) |
| --- | --- | --- |
| UGGGAGCAAUAUUACGGGUG | -3.33 ± 0.47 | -0.981 ± 0.26 |
| UGGGAGCAAUAUUACGUAAA | -1.97 ± 0.36 |  |
| UGGGAGCAAUAUUACGUACG | -2.41 ± 0.26 | -2.34 ± 0.21 |
| UGGGAGCAAUAUUACGUAUA |  | -2.74 ± 0.35 |
| UGGGAGCAAUAUUACGUCGU | -2.14 ± 0.2 | -2 ± 0.46 |
| UGGGAGCAAUAUUACGUCUU | -3.74 ± 0.35 | -2.54 ± 0.3 |
| UGGGAGCAAUAUUACGUUAC | -2.73 ± 0.47 |  |
| UGGUAGCAAUAUUACGACAC | -2.43 ± 0.32 | -1.69 ± 0.18 |
| UGGUAGCAAUAUUACGACAG | -0.598 ± 0.3 | -0.713 ± 0.38 |
| UGGUAGCAAUAUUACGAGAA |  | -1.11 ± 0.36 |
| UGGUAGCAAUAUUACGAUAA | -1.45 ± 0.21 | -0.6 ± 0.24 |
| UGGUAGCAAUAUUACGAUCA | -0.00935 ± 0.1 | 0.325 ± 0.13 |
| UGGUAGCAAUAUUACGAUCC | -0.523 ± 0.11 | -0.731 ± 0.16 |
| UGGUAGCAAUAUUACGCCUU | -0.729 ± 0.15 | 0.426 ± 0.18 |
| UGGUAGCAAUAUUACGCUGC | -2.89 ± 0.31 | -2.86 ± 0.4 |
| UGGUAGCAAUAUUACGGAGC |  | -0.765 ± 0.31 |
| UGGUAGCAAUAUUACGGCCA | -2.07 ± 0.3 | -1.94 ± 0.45 |
| UGGUAGCAAUAUUACGGCCC | -0.562 ± 0.18 | -0.000115 ± 0.21 |
| UGGUAGCAAUAUUACGGCGG | -0.708 ± 0.082 | -0.0108 ± 0.1 |
| UGGUAGCAAUAUUACGGGGU | -3.24 ± 0.43 |  |
| UGGUAGCAAUAUUACGUGGU | -4.36 ± 0.28 | -2.7 ± 0.36 |
| UGGUAGCAAUAUUACGUUUA | -1.58 ± 0.11 | -0.847 ± 0.1 |
| UGUAAGCAAUAUUACGACAU | -1.44 ± 0.015 | -0.831 ± 0.034 |
| UGUAAGCAAUAUUACGACGA | -0.272 ± 0.12 | -0.249 ± 0.11 |
| UGUAAGCAAUAUUACGAGGA | -2.17 ± 0.36 | -2.61 ± 0.34 |

| Sequence | self-splicing fitness (ln) (30 °C) | self-splicing fitness (ln) (37 °C) |
| --- | --- | --- |
| UGUAAGCAAUAUUACGAUAA | -1.12 ± 0.1 | 0.257 ± 0.13 |
| UGUAAGCAAUAUUACGAUCC | -1.49 ± 0.34 | -0.943 ± 0.42 |
| UGUAAGCAAUAUUACGAUUC |  | -2.35 ± 0.26 |
| UGUAAGCAAUAUUACGCACU | -0.554 ± 0.094 | -0.349 ± 0.12 |
| UGUAAGCAAUAUUACGCCGA | -1.5 ± 0.14 | -1.63 ± 0.18 |
| UGUAAGCAAUAUUACGCCUA | -0.337 ± 0.14 | 0.331 ± 0.15 |
| UGUAAGCAAUAUUACGCGUG | -0.994 ± 0.066 | 0.0779 ± 0.079 |
| UGUAAGCAAUAUUACGCUGA | -3.08 ± 0.26 | -1.33 ± 0.16 |
| UGUAAGCAAUAUUACGGAUG | -0.704 ± 0.07 | -0.103 ± 0.095 |
| UGUAAGCAAUAUUACGGAUU | -2.59 ± 0.12 | -1.09 ± 0.12 |
| UGUAAGCAAUAUUACGGCUC | -1.94 ± 0.19 | -1.32 ± 0.29 |
| UGUAAGCAAUAUUACGUACU | -0.07 ± 0.081 | -0.136 ± 0.092 |
| UGUAAGCAAUAUUACGUAGC |  | -1.96 ± 0.45 |
| UGUAAGCAAUAUUACGUCGU | -3.66 ± 0.24 | -1.97 ± 0.18 |
| UGUAAGCAAUAUUACGUCUA | -0.00173 ± 0.09 | 0.151 ± 0.11 |
| UGUAAGCAAUAUUACGUCUU | -1.74 ± 0.093 | -0.338 ± 0.11 |
| UGUAAGCAAUAUUACGUGCA | -0.738 ± 0.12 | -0.62 ± 0.11 |
| UGUAAGCAAUAUUACGUUUA | -0.814 ± 0.16 | -1.51 ± 0.14 |
| UGUCAGCAAUAUUACGAAUC | -2.79 ± 0.28 | -1.08 ± 0.22 |
| UGUCAGCAAUAUUACGAGAU | -3.11 ± 0.22 | -2.56 ± 0.27 |
| UGUCAGCAAUAUUACGCACA | -0.467 ± 0.083 | -0.355 ± 0.093 |
| UGUCAGCAAUAUUACGCCUG | 0.351 ± 0.072 | 0.582 ± 0.11 |
| UGUCAGCAAUAUUACGCGGC | -3.06 ± 0.24 | -2.09 ± 0.31 |
| UGUCAGCAAUAUUACGCGUA | -0.0687 ± 0.063 | 0.148 ± 0.073 |
| UGUCAGCAAUAUUACGCUGU | -3.1 ± 0.23 | -1.63 ± 0.19 |

| Sequence | self-splicing fitness (ln) (30 °C) | self-splicing fitness (ln) (37 °C) |
| --- | --- | --- |
| UGUCAGCAAUAUUACGGAGA | -1.58 ± 0.1 | -0.867 ± 0.091 |
| UGUCAGCAAUAUUACGGAUU | -1.57 ± 0.083 | -0.507 ± 0.12 |
| UGUCAGCAAUAUUACGGCAU | -3.01 ± 0.15 | -2.48 ± 0.23 |
| UGUCAGCAAUAUUACGGCUG | -2.9 ± 0.18 | -0.843 ± 0.18 |
| UGUCAGCAAUAUUACGGGAA | -1.71 ± 0.12 | -0.986 ± 0.11 |
| UGUCAGCAAUAUUACGGGAG | -2.78 ± 0.17 | -1.68 ± 0.14 |
| UGUCAGCAAUAUUACGGGUC | -3.4 ± 0.14 | -2.66 ± 0.15 |
| UGUCAGCAAUAUUACGUAAU | -1.03 ± 0.08 | -0.593 ± 0.089 |
| UGUCAGCAAUAUUACGUACC | -0.242 ± 0.11 | -0.159 ± 0.13 |
| UGUCAGCAAUAUUACGUCGG | -1.32 ± 0.078 | -0.266 ± 0.099 |
| UGUCAGCAAUAUUACGUUAG | -1.07 ± 0.067 | -0.704 ± 0.065 |
| UGUCAGCAAUAUUACGUUAU | -3.1 ± 0.12 | -1.77 ± 0.11 |
| UGUCAGCAAUAUUACGUUUG | -1.26 ± 0.061 | 0.085 ± 0.095 |
| UGUGAGCAAUAUUACGAAAC |  | -1.59 ± 0.35 |
| UGUGAGCAAUAUUACGAACC | -2.06 ± 0.24 | -0.336 ± 0.27 |
| UGUGAGCAAUAUUACGACCU | -0.867 ± 0.17 | 0.0453 ± 0.26 |
| UGUGAGCAAUAUUACGAGGA | -2.55 ± 0.29 | -2.89 ± 0.31 |
| UGUGAGCAAUAUUACGAGGC | -3.2 ± 0.28 | -3.1 ± 0.36 |
| UGUGAGCAAUAUUACGAGGG | -3.77 ± 0.3 | -3.54 ± 0.42 |
| UGUGAGCAAUAUUACGCAAA | -3.07 ± 0.37 | -1.8 ± 0.25 |
| UGUGAGCAAUAUUACGCAGC |  | -1.77 ± 0.4 |
| UGUGAGCAAUAUUACGCGCC | -2.07 ± 0.17 | -1.9 ± 0.38 |
| UGUGAGCAAUAUUACGCGUU | -2.62 ± 0.2 | -1.89 ± 0.25 |
| UGUGAGCAAUAUUACGCUGC | -1.9 ± 0.25 |  |
| UGUGAGCAAUAUUACGCUUG | -3.29 ± 0.31 | -3.13 ± 0.47 |
